B1: Pistol ribozyme (parent)
chain: GGGUCGUUGUUCCAUAAUCGCGUGGAUAUGGCACGCAAGUUUCUACCGGGCACCGUAAAUGUCCGACUGGAGCCGUUCGGGCGGCUAUAAACAGACCUCAGGCCCGAAGCGUGGCGGCACCUGCCGCCGGUGGUAAAAAAGAUCGGAAGAGCACACGUCU

Variants of: B1
Test: aptazyme ON/OFF ratio, guanine; higher = stronger switching; co-transcriptional cleavage with and without guanine
With U7C U10A U11G the “aptazyme ON/OFF ratio” value was 1.46.
In the case of U7C G9U U11A C12U C13G, the “aptazyme ON/OFF ratio” value is reported as 1.14.
In the case of U7A G9U U10A C12U C13G, the “aptazyme ON/OFF ratio” value is reported as 1.13.
With U7G U8C G9A U10G U11A C12G C13U the “aptazyme ON/OFF ratio” value was 1.12.
For U7C G9U C13A, the “aptazyme ON/OFF ratio” value was 1.04.
For U8C G9A U10G U11G C12G C13A, the “aptazyme ON/OFF ratio” value was 1.1.
In the case of U7A U8A G9C U10G U11A C12G C13G, the “aptazyme ON/OFF ratio” value is reported as 1.21.
For U7G U8C U11G C12G C13A, the “aptazyme ON/OFF ratio” value was 1.11.
In the case of U7G G9U C12A, the “aptazyme ON/OFF ratio” value is reported as 1.97.
In the case of U7C U8G G9U U10A C13A, the “aptazyme ON/OFF ratio” value is reported as 1.14.
With U7C U8C G9C U10C U11A C12U C13U the “aptazyme ON/OFF ratio” value was 1.1.
For U7C U8A G9U U10A U11G C13A, the “aptazyme ON/OFF ratio” value was 1.16.
With U7C U11C C12U the “aptazyme ON/OFF ratio” value was 1.5.
For U7G U8G G9C U10G C12A C13G, the “aptazyme ON/OFF ratio” value was 1.06.
With U7G U8G G9U U11A C12A C13G the “aptazyme ON/OFF ratio” value was 1.13.
For U10G U11G C13U, the “aptazyme ON/OFF ratio” value was 1.16.
With U7A U8G G9C U10C U11C C13A the “aptazyme ON/OFF ratio” value was 0.995.
With U7A U8C G9U U10G C12A C13A the “aptazyme ON/OFF ratio” value was 1.45.
For G9U U10A U11A C12A, the “aptazyme ON/OFF ratio” value was 1.54.
For U7A G9C C12G, the “aptazyme ON/OFF ratio” value was 1.08.
For U7C U8A G9C U10C C12A, the “aptazyme ON/OFF ratio” value was 1.04.
For U7G U8G G9A U11G C12A C13U, the “aptazyme ON/OFF ratio” value was 1.18.
In the case of U7C G9C U10C C12A C13G, the “aptazyme ON/OFF ratio” value is reported as 1.06.
For U10C U11G C12U C13U, the “aptazyme ON/OFF ratio” value was 1.28.
For U7A U8A U11G C13A, the “aptazyme ON/OFF ratio” value was 1.16.
In the case of U11A C13G, the “aptazyme ON/OFF ratio” value is reported as 1.12.
For U7C U8C G9A U11C C13G, the “aptazyme ON/OFF ratio” value was 1.05.
In the case of U7G G9C U10C C13U, the “aptazyme ON/OFF ratio” value is reported as 1.47.
With U7A U8G G9C U10C C13A the “aptazyme ON/OFF ratio” value was 1.09.
In the case of U7G G9U U10G C12G C13U, the “aptazyme ON/OFF ratio” value is reported as 1.4.
With U7A U8G G9U U11G C12G C13U the “aptazyme ON/OFF ratio” value was 1.22.
With U7A U8C G9U U10C U11A the “aptazyme ON/OFF ratio” value was 1.23.
With U7C U8G G9A U10G C13U the “aptazyme ON/OFF ratio” value was 1.54.
In the case of U7C U8C U10G U11G C12U C13U, the “aptazyme ON/OFF ratio” value is reported as 1.08.
For U7G U8G G9C U10G U11A C12A C13A, the “aptazyme ON/OFF ratio” value was 1.14.
With U7C U8C U10C U11A C12A C13A the “aptazyme ON/OFF ratio” value was 1.33.
For U8G G9C U10C U11C C12G C13G, the “aptazyme ON/OFF ratio” value was 1.09.
For U7A U8C G9A U10C C12A C13G, the “aptazyme ON/OFF ratio” value was 1.18.
With U8G G9A U10C U11A C12G C13U the “aptazyme ON/OFF ratio” value was 1.15.
With U8C G9A U10A U11G C13U the “aptazyme ON/OFF ratio” value was 1.18.
In the case of U8C G9A U10G U11G, the “aptazyme ON/OFF ratio” value is reported as 1.06.
In the case of U7C U8A G9C U10A C12G C13U, the “aptazyme ON/OFF ratio” value is reported as 1.26.
For G9U U10C U11C C13G, the “aptazyme ON/OFF ratio” value was 1.06.
For U7A U8C C12G, the “aptazyme ON/OFF ratio” value was 1.18.
For U7A U8C G9C U10A U11A C12A C13G, the “aptazyme ON/OFF ratio” value was 1.08.
For U8A G9C U10G U11G C12G, the “aptazyme ON/OFF ratio” value was 1.24.
For U8G G9U U10C U11C C12G C13G, the “aptazyme ON/OFF ratio” value was 1.1.
With U7G U8A U10A C12U the “aptazyme ON/OFF ratio” value was 1.18.
With U7A U8C G9U U10A U11A C12G C13G the “aptazyme ON/OFF ratio” value was 1.2.
For U8A G9C U10C C13A, the “aptazyme ON/OFF ratio” value was 1.01.
In the case of U7A U8G G9U U10A U11C C13G, the “aptazyme ON/OFF ratio” value is reported as 1.09.
For U7C G9U U10G U11C C13G, the “aptazyme ON/OFF ratio” value was 1.06.
For U8A G9U U10A U11A C13G, the “aptazyme ON/OFF ratio” value was 1.07.
In the case of U7C G9A U10A U11A C12U C13U, the “aptazyme ON/OFF ratio” value is reported as 1.19.
For U8A G9A C12G C13A, the “aptazyme ON/OFF ratio” value was 1.36.
With U7A G9U U10C U11C the “aptazyme ON/OFF ratio” value was 1.07.
For G9A U11C C12U C13U, the “aptazyme ON/OFF ratio” value was 1.55.
In the case of U7G U8A G9C C12A, the “aptazyme ON/OFF ratio” value is reported as 1.02.
With U7A U8G U10C U11G C12U the “aptazyme ON/OFF ratio” value was 1.29.
With U7C U8A G9C C12G C13G the “aptazyme ON/OFF ratio” value was 1.14.
With U7C U8G G9A U11C C12U C13G the “aptazyme ON/OFF ratio” value was 1.15.
In the case of U7A G9A U11G C13A, the “aptazyme ON/OFF ratio” value is reported as 1.26.
For U7C U8A G9A U10A C12A, the “aptazyme ON/OFF ratio” value was 1.19.
For U7A U8A G9U U10C U11A C12G C13A, the “aptazyme ON/OFF ratio” value was 1.25.
In the case of U7G U8A G9A U10C C13U, the “aptazyme ON/OFF ratio” value is reported as 1.13.
With U8C U10G U11A C12G C13U the “aptazyme ON/OFF ratio” value was 1.18.
With U7C U8A G9A U10C U11C C12G C13G the “aptazyme ON/OFF ratio” value was 1.17.
For U7C U8C G9U U10C U11A, the “aptazyme ON/OFF ratio” value was 2.44.
In the case of U8G G9A U10G U11A C12G, the “aptazyme ON/OFF ratio” value is reported as 1.6.
With U8C G9C U10G U11C C12A the “aptazyme ON/OFF ratio” value was 1.22.
In the case of U8C G9C U11C C12U C13U, the “aptazyme ON/OFF ratio” value is reported as 1.07.
For U7C U8A G9U C12U C13A, the “aptazyme ON/OFF ratio” value was 1.09.
In the case of U7A U8G G9U U11G C13U, the “aptazyme ON/OFF ratio” value is reported as 1.45.
With U7C U8G G9U U11G C12U C13G the “aptazyme ON/OFF ratio” value was 1.23.
In the case of U7G G9U U10G U11A C12U, the “aptazyme ON/OFF ratio” value is reported as 1.27.
For U8A G9C U10A C13U, the “aptazyme ON/OFF ratio” value was 1.13.
For U7C U8C G9C C12A C13U, the “aptazyme ON/OFF ratio” value was 1.13.
With U7C U8G U10G the “aptazyme ON/OFF ratio” value was 1.22.
With U7A U8G G9U U11G C12A C13G the “aptazyme ON/OFF ratio” value was 1.27.
In the case of U8C G9U U10A C12U C13A, the “aptazyme ON/OFF ratio” value is reported as 1.18.
For U7A U8A G9A U10G U11C, the “aptazyme ON/OFF ratio” value was 1.04.
For U7G U8G G9C U11C C12A, the “aptazyme ON/OFF ratio” value was 5.2.
For U8A U10G U11A C12G C13U, the “aptazyme ON/OFF ratio” value was 1.15.

From the RNAGym collection of RNA variant scans (doi:10.1021/acssynbio.7b00057)
